# Results from the supplement of paper PMC9170038.
# Test system: MS2 coat protein
# Assay: apparent KD of MS2 coat protein; designed switch direction (-1 OFF switch, 1 ON switch): -1; higher = weaker reporter binding
# In short: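 Stalled E. coli RNA polymerase transcribed designed RNA switches on Illumina chips, which were then titrated with SNAP-549-labelled MS2 coat protein, doubling from 0.7 or 1.5 nM to 3 µM. Steps lasted from 0.8–1.5 h at the lowest concentration to 10–20 min at the highest. The apparent KD is each design's median over clusters of curve-fitted normalised fluorescence.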
# [1] = Eterna round: R95, input ligand: FMN 200 uM
# [2] = Eterna round: R95, input ligand: microRNA oligo, concentration not stated
# [3] = Eterna round: R95, input ligand: none
# [4] = input ligand: microRNA oligo, concentration not stated
Sequence,apparent KD of MS2 coat protein (input ligand: FMN 200 uM) [nM],apparent KD of MS2 coat protein (input ligand: none) [nM],apparent KD of MS2 coat protein [1] [nM],apparent KD of MS2 coat protein [2] [nM],apparent KD of MS2 coat protein [3] [nM],apparent KD of MS2 coat protein [4] [nM]
"GGUCGAGAAGUUAGGAUAUCGAUAAAACAGAAAUUUGAGAAGGGACUUGAGGAUCACCCAAGUUAUUGGUUCUC [Anaranle] (Eterna round: R97, puzzle: Brourd's mod of Exclusion 4)",17.8,19.6,,,,
GGUCGGCGAGGAUAUACAUGAGGAUCACCCAUGUGAUUUAGUGCACGCGUACGUGUACGUAGAAGGCGCUGACG [JL-ex3-3.27 salish99 mod] (puzzle: Exclusion 3),,,127,14,11.3,
"GGUCUUCAAGUCAGGAUAUCGUCUAAUAGAUCUAACGAGAAGGGACAUGAGGAUCACCCAUGUCGUCUCAUCAG [Ex4 #19] (Eterna round: R97, puzzle: Brourd's mod of Exclusion 4)",34.5,16.5,,,,
"GGUGAGCUACUAGGAUAUCUAGGCUAUUUACCUAGAGAAGGAGUCGCCUUCCCUCGCGUAGAUACAUGAGGAUCACCCAUGUAU [Eternabot solution 50] (Eterna round: R96, puzzle: Exclusion NG 1)",16.9,18.1,,,,14.1
"GGUGAGCUAGGAUAUGCUUUGGGCCCGCAUUCCUUCGAUAAACUUGAGGAUCACCCAAGUAGAAGGAGCUUGCC [salish99_ex2_r4_031] (Eterna round: R97, puzzle: Exclusion 2)",30.4,17,,,,
GGUGCGUAUGUGAGGAUAUGCUGGUCCUUGGAUCAGCAGAAGGCACAUGAGGAUCACCCAUGUGGUGUCGUCCC [salish99_Bmod_Ex4_021] (puzzle: Brourd's mod of Exclusion 4),,,,241,,
GGUGCGUAUGUGAGGAUAUGCUGGUCCUUGGCUCGGCAGAAGGCACAUGAGGAUCACCCAUGUGGUGUCGUUCC [salish99_Bmod_ex4_055] (puzzle: Brourd's mod of Exclusion 4),,,,42.5,,
GGUGCGUUUGUGAGGAUAUGCUGGUCCUUGGAUCUGCAGAAGGCACAUGAGGAUCACCCAUGUGGUGUCGUACC [salish99_Bmod_Ex4_036] (puzzle: Brourd's mod of Exclusion 4),,,,208,,
GGUGGACAUGAGGAUCACCCAUGUGAGGAUAUCGGCUGGCUAGCGGCGGAUGGCUUCUCGAGAAGGCGCAUAGU [Exclusion 1 V81] (puzzle: Exclusion 1),,,,62.7,,
GGUGGACAUGAGGAUCACCCAUGUGAGGAUAUCGGCUGGCUAGUGGCGGAUGGCUUCUCGAGAAGGCGCAUAGU [Exclusion 1 V80] (puzzle: Exclusion 1),,,,50.2,,
"GGUGGGCUAGGAUAUGCUUUGGGAAAGCAUUCCUUCGAUAAACUUGAGGAUCACCCAAGUAGAAGGAGCUUGCC [salish99_ex2_r4_020] (Eterna round: R97, puzzle: Exclusion 2)",16.4,13.4,,,,
"GGUUCGAAUGUGAGGAUAUGCUGGUCCUUGGAUCAGCAGAAGGCACAUGAGGAUCACCCAUGUGGUAACGGACC [Mat - Exclusion 4 - Eli Mod - D36] (Eterna round: R97, puzzle: Brourd's mod of Exclusion 4)",178,357,,,,
GGUUGACAUGAGGAUCACCCAUGUGAGGAUAUGCGAGAGAAAAAAGUGAGGAAGAGAAGCAGAAGGCGCUGUCG [salish99-ex1_r3_014] (puzzle: Exclusion 1),,,68.7,45.1,106,
GGUUGACAUGAGGAUCACCCAUGUGAGGAUAUGCGAGAGAAAAAAGUGAGGAAGUAAUGCAGAAGGCGCUGUCG [salish99-ex1_r3_017] (puzzle: Exclusion 1),,,132,86.4,210,
GGUUGGCGAGGAUAUACAUGAGGAUCACCCAUGUGAGAAAAAAAAGUGAGGAAGAAAAGUAGAAGGCGCUGACG [salish99_ex3_r3_015] (puzzle: Exclusion 3),,,67.7,37.7,35.6,
GGUUGGCGAGGAUAUACAUGAGGAUCACCCAUGUGAGAAAAUAGUGAGGAAAAGAAAAGUAGAAGGCGCUGACG [Mat - Exclusion 3 - Mod of Salish D54] (puzzle: Exclusion 3),,,320,38.8,41.5,
GGUUGGCGAGGAUAUACAUGAGGAUCACCCAUGUGAGAGAAAGAAGUGAGGAAGAAAAGUAGAAGGUGCUGACG [salish99_ex3_r3_055] (puzzle: Exclusion 3),,,56.6,63.2,82.7,
GGUUGGCGAGGAUAUACAUGAGGAUCACCCAUGUGAGAGAAGAAAGUGAGGAAGAAAAGUAGAAGGCGCUGACG [salish99_ex3_r3_004] (puzzle: Exclusion 3),,,133,59,62.4,
GGUUGGCGAGGAUAUACAUGAGGAUCACCCAUGUGAGAGAUAAAAGUGAGGAAGAAAAGUAGAAGGCGCUGACG [salish99_ex3_r3_012] (puzzle: Exclusion 3),,,155,29.5,69,
GGUUGGCGAGGAUAUACAUGAGGAUCACCCAUGUGAGAGAUACUAGUGAGGUCGAUUGGUAGAAGGCGCUGACG [JL-ex3-2.02 salish99 mod] (puzzle: Exclusion 3),,,97.8,95.5,135,
"GGUUUGCAGCAGGAUAUCCAUCCGCGGUAUGGUGGAGAAGGGCUGACAUGAGGAUCACCCAUGUGCGUCCUAGG [salish99_ex6_r4_017] (Eterna round: R97, puzzle: Exclusion 6)",58.6,27.6,,,,
GUAAAAAAAAAGGAUAUCGAACUUAUUAUUUAACGAGAAGGAUGAACAUGAGGAUCACCCAUGUGGUAUCAUGG [test] (puzzle: Exclusion 6),,,92.3,143,213,
"GUAAACGAUCAGGAUAUAUCAAAUCAUAGCUUGAUAGAAGGGAUCACAUGAGGAUCACCCAUGUGAUCUUCUUU [jl-ex6-4.15 ViennaUCT mod] (Eterna round: R97, puzzle: Exclusion 6)",13.2,13.9,,,,
"GUAAACGCAGAGGAUAUUUCAGAUCAAAGCUGCAAAGAAGGCUGCACAUGAGGAUCACCCAUGUGGUCUUCAAG [Mat - Exclusion 6 - JL Mod - D10] (Eterna round: R97, puzzle: Exclusion 6)",297,24.7,,,,
GUAAAGUGAGGAUAUGGUAAAUUAAUUAUUAAUUAAUUAAUCCAGAAGGCACAUGAGGAUCACCCAUGUAUAUG [Mat - Exclusion 4 - D88] (puzzle: Exclusion 4),,,,30,,
"GUAACAACUAGAGGAUAUCAGCACGAUUAGUGCUGAGAAGGCUAGAGUUACAUGAGGAUCACCCAUGUCUAGAGAUCAUUAAUU [ENG1/13-A1] (Eterna round: R96, puzzle: Exclusion NG 1)",155,79.7,,,,53.2
